Assays:
[1] = target: T1, recombinant Fc-tagged human LAG-3 (R&D Systems, 2319-L3-050) (human, UniProt P18627 23-450); test: SPR, mAb captured on Protein L, human LAG-3 Fc injected (from 0.5 nM)
T1 construct: Bought protein; also called LAG-3 Fc; human LAG-3-Fc; not shown: Fc tag of the bought fusion protein
T1 sequence: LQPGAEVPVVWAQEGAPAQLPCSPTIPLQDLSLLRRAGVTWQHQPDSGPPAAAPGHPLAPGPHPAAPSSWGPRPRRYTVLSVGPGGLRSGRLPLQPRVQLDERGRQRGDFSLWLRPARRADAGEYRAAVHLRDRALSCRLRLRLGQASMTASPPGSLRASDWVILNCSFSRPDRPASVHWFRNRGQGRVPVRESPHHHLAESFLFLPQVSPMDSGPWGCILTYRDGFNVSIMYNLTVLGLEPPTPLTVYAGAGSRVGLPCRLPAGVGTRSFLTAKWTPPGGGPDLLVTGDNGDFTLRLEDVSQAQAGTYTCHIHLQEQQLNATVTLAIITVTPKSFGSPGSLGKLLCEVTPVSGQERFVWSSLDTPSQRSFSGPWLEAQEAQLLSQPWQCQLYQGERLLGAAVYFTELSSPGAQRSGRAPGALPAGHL
Protocol: Protein L (Thermo, 21189) was immobilized on flow cells 1 and 2 of a Series S CM5 chip (GE Healthcare, BR-1005-30) by amine coupling (GE Healthcare, BR-1000-50) to a surface density of 2000 RU by following the manufacturer's instructions for the BIAcore T200 instrument. […] The association time was 3 min and the dissociation time was 6 min. Running buffer was HBS-P (GE Healthcare, BR-1003-68). Both flow cells were regenerated by injecting 10 mM sodium hydroxide (NaOH) at a flow rate of 100 μl/min for 20 seconds. The data were analysed by double referencing against the blank flow cell.
The binding kinetics were fit with a 1:1 Langmuir model to generate binding association (kₐ) and dissociation (kd) rates. Equilibrium binding constants (KD) were calculated by dividing the dissociation rate by the association rate for each sample. Data analysis was performed with BiaEvaluation software version 3.2.

[2] = target: T2, human PD-L1 Fc (R&D Systems, 156-B7) (human, UniProt Q9NZQ7 19-239); test: SPR, BIAcore T200; mAb captured on Protein L, PD-L1 Fc injected
T2 construct: Bought protein; not shown: Fc tag of the bought fusion protein
T2 sequence (Q9NZQ7 19-239 limits assumed): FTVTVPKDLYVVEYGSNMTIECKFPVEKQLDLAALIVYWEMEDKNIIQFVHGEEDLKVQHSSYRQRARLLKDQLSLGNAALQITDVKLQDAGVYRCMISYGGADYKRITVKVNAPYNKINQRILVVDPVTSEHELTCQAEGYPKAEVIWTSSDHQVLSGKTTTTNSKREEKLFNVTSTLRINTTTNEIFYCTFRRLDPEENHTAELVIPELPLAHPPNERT

binding result [1]: no binding | Kd [2]: 1.2 nM | koff [2]: 0.00046 s⁻¹ | kon [2]: 380000 M⁻¹ s⁻¹
B1: anti-human PD-L1 mAb 84G09 with LALA mutation (antibody, human IgG1, kappa, L234A L235A)
heavy: not shown
light: DIQMTQSPSSLSASVGDRVTITCRASQSISSYLNWYQQKPGKAPKPLIYVASSLQSGVPSSFSGSGSGTDFTLTISSLQPEDFATYYCQQSYSNPITFGQGTRLEIKRTVAAPSVFIFPPSDEQLKSGTASVVCLLNNFYPREAKVQWKVDNALQSGNSQESVTEQDSKDSTYSLSSTLTLSKADYEKHKVYACEVTHQGLSSPVTKSFNRGEC
notes: Human IgG1 with LALA; also called 84G09LALA; 84G09 LALA
